Assay results as given in patent publication US20130209454A1.
Changes are numbered by the printed parent chain. Names and notes keep the numbering of the source.

Tests used:
Experiment in all cases: cell-based or functional assay
[1] = molecular target: HIV-1 Env of strain BJOX009000.02.4 (HIV-1)
[2] = molecular target: HIV-1 Env of strain 6041.v3.c23 (HIV-1)
[3] = molecular target: HIV-1 Env of strain Ce704809221_1B3 (HIV-1)
[4] = molecular target: HIV-1 Env of strain CNE8 (HIV-1)
[5] = molecular target: HIV-1 Env of strain 9004SS_A3_4 (HIV-1)
[6] = molecular target: HIV-1 Env of strain A07412M1.vrc12 (HIV-1)
[7] = molecular target: HIV-1 Env of strain MS208.A1 (HIV-1)
[8] = molecular target: HIV-1 Env of strain 0260.v5.c36 (HIV-1)
[9] = molecular target: HIV-1 Env of strain 246F C1G (HIV-1)
[10] = molecular target: HIV-1 Env of strain 249M B10 (HIV-1)
[11] = molecular target: HIV-1 Env of strain CNE5 (HIV-1)
[12] = molecular target: HIV-1 Env of strain HIV-001428-2.42 (HIV-1)
[13] = molecular target: HIV-1 Env of strain 191955_A11 (HIV-1)
[14] = molecular target: HIV-1 Env of strain HIV-0013095-2.11 (HIV-1)
[15] = molecular target: Env of HIV-1 strain CNE52 (HIV-1)
[16] = molecular target: Env of HIV-1 strain 6952.v1.c20 (HIV-1)
[17] = molecular target: Env of HIV-1 strain 191084 B7-19 (HIV-1)
[18] = molecular target: Env of HIV-1 strain 6535.3 (HIV-1)
[19] = molecular target: Env of HIV-1 strain RHPA4259.7 (HIV-1)
[20] = molecular target: Env of HIV-1 strain ZM135M.PL10a (HIV-1)
[21] = molecular target: Env of HIV-1 strain TRO.11 (HIV-1)
[22] = molecular target: Env of HIV-1 strain 3365.v2.c2 (HIV-1)
[23] = molecular target: Env of HIV-1 strain 1006_11_C3_1601 (HIV-1)
[24] = molecular target: Env of HIV-1 strain T255-34 (HIV-1)
[25] = molecular target: Env of HIV-1 strain 928-28 (HIV-1)
[26] = molecular target: Env of HIV-1 strain THRO4156.18 (HIV-1)
[27] = molecular target: Env of HIV-1 strain X2131_C1_B5 (HIV-1)
[28] = molecular target: Env of HIV-1 strain C1080.c03 (HIV-1)
[29] = molecular target: Env of HIV-1 strain C2101.c01 (HIV-1)
[30] = molecular target: Env of HIV-1 strain CAAN5342.A2 (HIV-1)
[31] = molecular target: Env of HIV-1 strain 249M B10 (HIV-1)
[32] = molecular target: Env of HIV-1 strain CNE17 (HIV-1)
[33] = molecular target: Env of HIV-1 strain 246F C1G (HIV-1)
[34] = molecular target: Env of HIV-1 strain HIV-16055-2.3 (HIV-1)
[35] = molecular target: Env of HIV-1 strain T250-4 (HIV-1)
[36] = molecular target: Env of HIV-1 strain Ce0682_E4 (HIV-1)
[37] = molecular target: Env of HIV-1 strain Q23.17 (HIV-1)
[38] = molecular target: Env of HIV-1 strain 3103.v3.c10 (HIV-1)
[39] = molecular target: Env of HIV-1 strain 9004SS_A3_4 (HIV-1)
[40] = molecular target: Env of HIV-1 strain BJOX010000.06.2 (HIV-1)
[41] = molecular target: Env of HIV-1 strain BJOX028000.10.3 (HIV-1)
[42] = molecular target: Env of HIV-1 strain R1166.c01 (HIV-1)
[43] = molecular target: Env of HIV-1 strain Q259.d2.17 (HIV-1)
[44] = molecular target: Env of HIV-1 strain Ce1176_A3 (HIV-1)
[45] = molecular target: Env of HIV-1 strain SC422661.8 (HIV-1)
[46] = molecular target: Env of HIV-1 strain ZM249M.PL1 (HIV-1)
[47] = molecular target: Env of HIV-1 strain R2184.c04 (HIV-1)
[48] = molecular target: Env of HIV-1 strain 6240_08_TA5_4622 (HIV-1)
[49] = molecular target: Env of HIV-1 strain Ce0393_C3 (HIV-1)
[50] = molecular target: Env of HIV-1 strain T278-50 (HIV-1)
[51] = molecular target: Env of HIV-1 strain Q769.d22 (HIV-1)

B1: NIH45-46^G54W(HC), S28Y(LC) (antibody, V domains shown)
VH: QVRLSQSGGQMKKPGESMRLSCRASGYEFLNCPINWIRLAPGRRPEWMGWLKPRWGAVNYARKFQGRVTMTRDVYSDTAFLELRSLTSDDTAVYFCTRGKYCTARDYYNWDFEHWGRGAPVTVSS
VL: EIVLTQSPATLSLSPGETAIISCRTSQYGSLAWYQQRPGQAPRLVIYSGSTRAAGIPDRFSGSRWGADYNLSISNLESGDFGVYYCQQYEFFGQGTKVQVDI
- IC50, pseudovirus neutralization [1]: 0.14 µg/mL
- IC50, pseudovirus neutralization [2]: 1 ng/mL
- IC50, pseudovirus neutralization [3]: 0.101 µg/mL
- IC50, pseudovirus neutralization [4]: 0.038 µg/mL
- IC50, pseudovirus neutralization [5]: 0.046 µg/mL
- IC50, pseudovirus neutralization [6]: 1 ng/mL
- IC50, pseudovirus neutralization [7]: 0.022 µg/mL
- IC50, pseudovirus neutralization [8]: 0.032 µg/mL
- IC50, pseudovirus neutralization [9]: 0.036 µg/mL
- IC50, pseudovirus neutralization [10]: 1 ng/mL
- IC50, pseudovirus neutralization [11]: 0.032 µg/mL
- IC50, pseudovirus neutralization [12]: 1 ng/mL
- IC50, pseudovirus neutralization [13]: 0.013 µg/mL
- IC50, pseudovirus neutralization [14]: 2 ng/mL

B2: NIH45-46^G54W (antibody, V domains shown)
VH: B1 VH
VL: B1 VL with Y28S
- IC80 [15]: 0.052 µg/mL
- IC80 [16]: 0.01 µg/mL
- IC80 [17]: 0.026 µg/mL
- IC50, pseudovirus neutralization [1]: 0.132 µg/mL
- IC80 [18]: 0.13 µg/mL
- IC80 [19]: 7 ng/mL
- IC80 [20]: 0.16 µg/mL
- IC50, pseudovirus neutralization [2]: 1 ng/mL
- IC80 [21]: 0.13 µg/mL
- IC80 [22]: 0.056 µg/mL
- IC80 [23]: 0.008 µg/mL
- IC80 [24]: 0.099 µg/mL
- IC80 [25]: 0.25 µg/mL
- IC50, pseudovirus neutralization [3]: 0.007 µg/mL
- IC80 [26]: 1.81 µg/mL
- IC50, pseudovirus neutralization [4]: 0.055 µg/mL
- IC50, pseudovirus neutralization [5]: 0.054 µg/mL
- IC80 [27]: 0.24 µg/mL
- IC80 [28]: 0.91 µg/mL
- IC80 [29]: 0.17 µg/mL
- IC80 [30]: 0.21 µg/mL
- IC80 [31]: 0.019 µg/mL
- IC80 [32]: 0.127 µg/mL
- IC80 [33]: 2.45 µg/mL
- IC80 [34]: 0.024 µg/mL
- IC50, pseudovirus neutralization [6]: 1 ng/mL
- IC80 [35]: 44.9 µg/mL
- IC50, pseudovirus neutralization [7]: 0.031 µg/mL
- IC80 [36]: 0.039 µg/mL
- IC80 [37]: 0.03 µg/mL
- IC80 [38]: 0.56 µg/mL
- IC80 [39]: 0.28 µg/mL
- IC80 [40]: 4.5 µg/mL
- IC50, pseudovirus neutralization [8]: 0.117 µg/mL
- IC80 [41]: 2 ng/mL
- IC50, pseudovirus neutralization [9]: 0.315 µg/mL
- IC80 [42]: 0.51 µg/mL
- IC80 [43]: 0.014 µg/mL
- IC50, pseudovirus neutralization [10]: 1 ng/mL
- IC80 [44]: 0.45 µg/mL
- IC50, pseudovirus neutralization [11]: 0.009 µg/mL
- IC80 [45]: 0.07 µg/mL
- IC50, pseudovirus neutralization [12]: 1 ng/mL
- IC80 [46]: 0.007 µg/mL
- IC80 [47]: 0.036 µg/mL
- IC50, pseudovirus neutralization [13]: 0.015 µg/mL
- IC50, pseudovirus neutralization [14]: 5 ng/mL
- IC80 [48]: 0.603 µg/mL
- IC80 [49]: 0.089 µg/mL
- IC80 [50]: > 50 µg/mL
- IC80 [51]: 0.009 µg/mL

B3: NIH45-46^G54W(HC) S28Y(LC) (antibody, V domains shown)
VH: B1 VH
VL: B1 VL
- IC80 [15]: 0.028 µg/mL
- IC80 [16]: 0.042 µg/mL
- IC80 [17]: 0.016 µg/mL
- IC80 [18]: 0.059 µg/mL
- IC80 [19]: 7 ng/mL
- IC80 [20]: 0.163 µg/mL
- IC80 [21]: 0.079 µg/mL
- IC80 [22]: 0.049 µg/mL
- IC80 [23]: 0.037 µg/mL
- IC80 [24]: 0.105 µg/mL
- IC80 [25]: 0.159 µg/mL
- IC80 [26]: 2.74 µg/mL
- IC80 [27]: 0.145 µg/mL
- IC80 [28]: 0.589 µg/mL
- IC80 [29]: 0.169 µg/mL
- IC80 [30]: 0.299 µg/mL
- IC80 [31]: 0.017 µg/mL
- IC80 [32]: 0.254 µg/mL
- IC80 [33]: 0.14 µg/mL
- IC80 [34]: 0.017 µg/mL
- IC80 [35]: 38.9 µg/mL
- IC80 [36]: 0.031 µg/mL
- IC80 [37]: 0.05 µg/mL
- IC80 [38]: 0.594 µg/mL
- IC80 [39]: 0.138 µg/mL
- IC80 [40]: 5.04 µg/mL
- IC80 [41]: 6 ng/mL
- IC80 [42]: 1.01 µg/mL
- IC80 [43]: 0.011 µg/mL
- IC80 [44]: 0.467 µg/mL
- IC80 [45]: 0.09 µg/mL
- IC80 [46]: 0.017 µg/mL
- IC80 [47]: 0.039 µg/mL
- IC80 [48]: 0.623 µg/mL
- IC80 [49]: 0.151 µg/mL
- IC80 [50]: > 50 µg/mL
- IC80 [51]: 0.017 µg/mL
